Test results from paper PMC4585563, “Small angle X-ray scattering studies of CTNNBL1 dimerization and CTNNBL1/CDC5L complex” (Scientific Reports, 2015).
Numbering of substitutions follows the chain as printed. Numbers in names are those of the source.

B1: CTNNBL1^E282A (domain or fragment, human, UniProt Q8WYA6 77-563, looked up)
chain: LDESSVKKMILTFEKRSYKNQELRIKFPDNPEKFMESELDLNDIIQEMHVVATMPDLYHLLVELNAVQSLLGLLGHDNTDVSIAVVDLLQELTDIDTLHESEEGAEVLIDALVDGQVVALLVQNLERLDESVKEEADGVHNTLAIVENMAEFRPEMCTEGAQQGLLQWLLKRLKAKMPFDANKLYCSEVLAILLQDNDENRELLGALDGIDVLLQQLSVFKRHNPSTAEEQEMMENLFDSLCSCLMLSSNRERFLKGEGLQLMNLMLREKKISRSSALKVLDHAMIGPEGTDNCHKFVDILGLRTIFPLFMKSPRKIKKVGTTEKEHEEHVCSILASLLRNLRGQQRTRLLNKFTENDSEKVDRLMELHFKYLGAMQVADKKIEGEKHDMVRRGEIIDNDTEEEFYLRRLDAGLFVLQHICYIMAEICNANVPQIRQRVHQILNMRGSSIKIVRHIIKEYAENIGDGRSPEFRENEQKRILGLLENF
notes: human CTNNBL1, residues 77-563, point mutant made by site-directed mutagenesis; source: E. coli, purified as wild-type CTNNBL1; not shown: 6xHis, N-terminal, cleaved; VHb (bacterial hemoglobin), N-terminal, cleaved
B2: CTNNBL1^G148R (domain or fragment, human, UniProt Q8WYA6 77-563, looked up)
chain: B1 chain with G72R, A206E
notes: as for B1
B3: CTNNBL1^I101R (domain or fragment, human, UniProt Q8WYA6 77-563, looked up)
chain: B1 chain with I25R, A206E
notes: as for B1
B4: CTNNBL1^L87R (domain or fragment, human, UniProt Q8WYA6 77-563, looked up)
chain: B1 chain with L11R, A206E
notes: as for B1
B5: CTNNBL1^Q238A/E278A/E282A (domain or fragment, human, UniProt Q8WYA6 77-563, looked up)
chain: B1 chain with Q162A, E202A
notes: human CTNNBL1, residues 77-563, triple-point mutant (ARM III and ARM IV); also called Arm III and Arm IV mutant; source: E. coli, purified as wild-type CTNNBL1; not shown: 6xHis, N-terminal, cleaved; VHb (bacterial hemoglobin), N-terminal, cleaved
B6: CTNNBL1^L87R/I101R (domain or fragment, human, UniProt Q8WYA6 77-563, looked up)
chain: B1 chain with L11R, I25R, A206E
notes: human CTNNBL1, residues 77-563, double-point mutant (capping region); also called capping region mutant; source: E. coli, purified as wild-type CTNNBL1; not shown: 6xHis, N-terminal, cleaved; VHb (bacterial hemoglobin), N-terminal, cleaved
B7: CTNNBL1^Q192R (domain or fragment, human, UniProt Q8WYA6 77-563, looked up)
chain: B1 chain with Q116R, A206E
notes: as for B1
B8: CTNNBL1^E278A (domain or fragment, human, UniProt Q8WYA6 77-563, looked up)
chain: B1 chain with E202A, A206E
notes: as for B1
B9: CTNNBL1^G148R/Q192R/Q199R (domain or fragment, human, UniProt Q8WYA6 77-563, looked up)
chain: B1 chain with G72R, Q116R, Q123R, A206E
notes: human CTNNBL1, residues 77-563, triple-point mutant (ARM I and ARM II); also called ARM I and ARM II mutant; source: E. coli, purified as wild-type CTNNBL1; not shown: 6xHis, N-terminal, cleaved; VHb (bacterial hemoglobin), N-terminal, cleaved
B10: CTNNBL1^Q199R (domain or fragment, human, UniProt Q8WYA6 77-563, looked up)
chain: B1 chain with Q123R, A206E
notes: as for B1
B11: CDC5L^141-285 (domain or fragment, human, UniProt Q99459 141-285, looked up)
chain: PIDMDEDELEMLSEARARLANTQGKKAKRKAREKQLEEARRLAALQKRRELRAAGIEIQKKRKRKRGVDYNAEIPFEKKPALGFYDTSEENYQALDADFRKLRQQDLDGELRSEKEGRDRKKDKQHLKRKKESDLPSAILQTSGV
notes: CDC5L of the human hPrp19/CDC5L complex, residues 141-285; holds NLS3 (residues 200-206: KKRKRKR); cloned into pET-30a(+); also called 6xHis-tagged CDC5L 141-285; source: E. coli, purified as CTNNBL1 with 300 mM NaCl in the buffers, without TEV protease
B12: CDC5L^141-377 (domain or fragment, human, UniProt Q99459 141-377, looked up)
chain: PIDMDEDELEMLSEARARLANTQGKKAKRKAREKQLEEARRLAALQKRRELRAAGIEIQKKRKRKRGVDYNAEIPFEKKPALGFYDTSEENYQALDADFRKLRQQDLDGELRSEKEGRDRKKDKQHLKRKKESDLPSAILQTSGVSEFTKKRSKLVLPAPQISDAELQEVVKVGQASEIARQTAEESGITNSASSTLLSEYNVTNNSVALRTPRTPASQDRILQEAQNLMALTNVDT
notes: CDC5L of the human hPrp19/CDC5L complex, residues 141-377 of the N-terminal domain; holds NLS3 (residues 200-206: KKRKRKR); cloned into pET-30a(+); also called 6xHis-tagged CDC5L 141-377; source: E. coli, purified as CTNNBL1 with 300 mM NaCl in the buffers, without TEV protease
B13: CTNNBL1 (residues 77-563), wild type (domain or fragment, human, UniProt Q8WYA6 77-563, looked up)
chain: B1 chain with A206E
notes: human CTNNBL1, residues 77-563, amplified from a human cDNA library; Dimer by SAXS at 0-200 mM NaCl and by SEC at 150 mM NaCl; monomer at 300-400 mM NaCl; also called native CTNNBL1; wild-type CTNNBL1; source: E. coli BL21(DE3)-T1R, purified (Ni-NTA, TEV protease, Ni-NTA, Superdex200); not shown: 6xHis, N-terminal, cleaved; VHb (bacterial hemoglobin), N-terminal, cleaved
B14: CDC5L^141-235 (domain or fragment, human, UniProt Q99459 141-235, looked up)
chain: PIDMDEDELEMLSEARARLANTQGKKAKRKAREKQLEEARRLAALQKRRELRAAGIEIQKKRKRKRGVDYNAEIPFEKKPALGFYDTSEENYQAL
notes: CDC5L of the human hPrp19/CDC5L complex, residues 141-235; holds NLS3 (residues 200-206: KKRKRKR); cloned into pPosKJ; pPosKJ adds 6xHis and VHb, both removed only by TEV protease; the His-tagged proteins were made without TEV, so VHb should still be on the chain in the pull-down; also called 6xHis-tagged CDC5L 141-235; source: E. coli, purified as CTNNBL1 with 300 mM NaCl in the buffers, without …
B15: CDC5L^197-285 (domain or fragment, human, UniProt Q99459 197-285, looked up)
chain: EIQKKRKRKRGVDYNAEIPFEKKPALGFYDTSEENYQALDADFRKLRQQDLDGELRSEKEGRDRKKDKQHLKRKKESDLPSAILQTSGV
notes: CDC5L of the human hPrp19/CDC5L complex, residues 197-285; holds NLS3 (residues 200-206: KKRKRKR); cloned into pPosKJ; pPosKJ adds 6xHis and VHb, both removed only by TEV protease; the His-tagged proteins were made without TEV, so VHb should still be on the chain in the pull-down; also called 6xHis-tagged CDC5L 197-285; source: E. coli, purified as CTNNBL1 with 300 mM NaCl in the buffers, without …

Target: the molecule itself
Test: SEC; Superdex 200 10/300, 500 μl of 2 mg/ml protein, 0.5 ml/min, 40 mM Tris-HCl pH 8.0, 150 mM NaCl; molecular weight from calibration standards
Details: not given

Binder	stoichiometry N
B1	2
B2	2
B3	2
B4	2
B5	2
B6	2
B7	2
B8	2
B9	2
B10	2

Target: the molecule itself
Test: SEC; CDC5L truncations alone; data not shown
Details: not given

Binder	stoichiometry N
B11	2
B12	2

Target: the molecule itself
Test: SAXS; CTNNBL1 alone in solution, 200 mM NaCl, 4 °C, 1.0-5.0 mg/ml; oligomeric state from molecular mass (absolute I(0)), Guinier and p(r) analysis
Details: not given

Binder	stoichiometry N
B13	2

Target: the molecule itself
Test: SAXS; CTNNBL1 alone in solution, 0 mM NaCl, 4 °C, 1.0-5.0 mg/ml; oligomeric state from molecular mass (absolute I(0)), Guinier and p(r) analysis
Details: not given

Binder	stoichiometry N
B13	2

target: B13; test: pull-down; 6xHis-tagged CDC5L truncations mixed with untagged CTNNBL1 in 50 mM Tris-HCl pH 8.0, 300 mM NaCl, dialysed against 50 mM Tris-HCl without NaCl at 4 °C overnight, loaded on Ni-NTA resin, washed with 10 mM imidazole, eluted with 300 mM imidazole, SDS-PAGE; details: both partners purified

Binder	binding result
B11	binds
B14	binds
B15	binds
B12	binds

Target: the molecule itself
Test: SAXS; CTNNBL1 alone in solution, 100 mM NaCl, 4 °C, 1.0-5.0 mg/ml; oligomeric state from molecular mass (absolute I(0)), Guinier and p(r) analysis
Details: not given

Binder	stoichiometry N
B13	2
